Data from article PMC9215227 (Journal of Virology, 2022).

Molecular target: NP of SARS-CoV-2 (catalog no. 40588-V07E; Sino Biological) (SARS-CoV-2, UniProt P0DTC9 1-419)
Test: SPR; […], Biacore T200; 0.01 M HEPES pH 7.4, 0.15 M NaCl, 3 mM EDTA, 0.05% Tween 20; […]; 1:1 binding model
Settings: both partners purified

B1: 6×His-Flag-G3BP2 (natural protein)
chain: MVMEKPSPLLVGREFVRQYYTLLNKAPEYLHRFYGRNSSYVHGGVDASGKPQEAVYGQNDIHHKVLSLNFSECHTKIRHVDAHATLSDGVVVQVMGLLSNSGQPERKFMQTFVLAPEGSVPNKFYVHNDMFRYEDEVFGDSEPELDEESEDEVEEEQEERQPSPEPVQENANSGYYEAHPVTNGIEEPLEESSHEPEPEPESETKTEELKPQVEEKNLEELEEKSTTPPPAEPVSLPQEPPKAFSWASVTSKNLPPSGTVSSSGIPPHVKAPVSQPRVEAKPEVQSQPPRVREQRPRERPGFPPRGPRPGRGDMEQNDSDNRRIIRYPDSHQLFVGNLPHDIDENELKEFFMSFGNVVELRINTKGVGGKLPNFGFVVFDDSEPVQRILIAKPIMFRGEVRLNVEEKKTRAARERETRGGGDDRRDIRRNDRGPGGPRGIVGGGMMRDRDGRGPPPRGGMAQKLGSGRGTGQMEGRFTGQRR
  Kd: 103 nM
